Patent publication US20060147463A1

Experiments:
alcohol dehydrogenase = assay: cell-based or functional assay
[1] = molecular target: carboxy-terminal truncated Hsp20 (Babesia bovis) (Babesia bovis); assay: size exclusion FPLC (Superose 6) (self-association)

Substance	molar ratio of greatest reduction in light scattering at time infinity (molar ratio Hsp20 to ADH) (alcohol dehydrogenase)	reduction in light scattering of ADH at 58° C., 60 minutes, molar ratio 2:1 Hsp20:ADH (alcohol dehydrogenase) [fold]	percent of protein as dimer [1] [%]
His-tagged Hsp20 from Babesia bovis (full length)	2	2.3	–
carboxy-terminal truncated Hsp20 (Babesia bovis)	–	–	42
